This note sets out measurements from patent publication US20070027082A1 (UNIVERSITY OF TENNESSEE RESEARCH FOUNDATION, published 2007).

Assay [1] concerns the target T1, type I IL-1 receptor on murine EL4 6.1 cells (murine) (UniProt P13504).
T1 sequence (looked up): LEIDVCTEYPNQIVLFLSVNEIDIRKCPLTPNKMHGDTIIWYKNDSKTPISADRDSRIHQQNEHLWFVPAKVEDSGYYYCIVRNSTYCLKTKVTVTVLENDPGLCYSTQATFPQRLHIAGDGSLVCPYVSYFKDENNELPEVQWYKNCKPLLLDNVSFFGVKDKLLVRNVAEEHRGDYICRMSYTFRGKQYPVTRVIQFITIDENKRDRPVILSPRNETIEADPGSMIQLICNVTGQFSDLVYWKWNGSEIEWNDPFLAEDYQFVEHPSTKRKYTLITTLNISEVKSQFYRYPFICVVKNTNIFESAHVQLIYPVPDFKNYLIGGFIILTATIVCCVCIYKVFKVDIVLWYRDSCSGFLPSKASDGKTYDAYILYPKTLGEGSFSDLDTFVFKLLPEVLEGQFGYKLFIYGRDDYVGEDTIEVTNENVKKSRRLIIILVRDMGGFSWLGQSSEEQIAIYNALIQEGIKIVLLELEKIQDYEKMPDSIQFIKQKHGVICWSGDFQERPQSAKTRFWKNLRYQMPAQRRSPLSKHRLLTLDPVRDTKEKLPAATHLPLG
As to the kind of experiment: competitive radioligand binding on EL4 6.1 cells, 100x excess of competitor.

Assay [2] concerns the target T2, type I IL-1 receptor on murine EL4 6.1 cells (murine, UniProt P13504 20-576).
T2 construct: whole, on cells; Endogenous receptor on the murine T cell line EL4 6.1; also called type I IL-1Rs; IL-1 receptors on murine EL4 6.1 cells
T2 sequence (looked up): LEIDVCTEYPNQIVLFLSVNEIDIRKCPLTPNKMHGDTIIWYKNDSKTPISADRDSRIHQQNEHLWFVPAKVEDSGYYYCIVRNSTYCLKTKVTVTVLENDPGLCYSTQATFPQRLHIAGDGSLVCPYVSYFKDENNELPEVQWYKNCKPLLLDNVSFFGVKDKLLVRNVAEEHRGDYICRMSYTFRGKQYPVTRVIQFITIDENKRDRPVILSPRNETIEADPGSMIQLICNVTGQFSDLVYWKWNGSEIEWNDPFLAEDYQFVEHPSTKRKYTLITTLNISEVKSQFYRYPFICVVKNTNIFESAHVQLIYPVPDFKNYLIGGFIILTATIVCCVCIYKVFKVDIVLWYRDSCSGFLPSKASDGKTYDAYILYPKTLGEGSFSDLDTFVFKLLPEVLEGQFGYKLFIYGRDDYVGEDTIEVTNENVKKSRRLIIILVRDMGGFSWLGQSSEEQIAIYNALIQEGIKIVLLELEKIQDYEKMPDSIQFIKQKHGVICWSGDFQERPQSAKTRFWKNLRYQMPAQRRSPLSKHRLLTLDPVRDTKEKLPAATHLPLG
The assay can be described thus: competition with [125I] IL-1 beta for type I IL-1R on EL4 6.1 cells. Here is the method: IL-1 beta for binding to type I IL-1 receptors on murine cells. EL46.1 cells were incubated at 4° C. in presence of the sodium azide for 2 hr with and without each of the IL-1ra peptides or with soluble human recombinant interleukin Ira (shrIL-1ra) as a control. Cells were then incubated with [¹²⁵I]hrIL-1, transferred to microfuge tubes containing phthalolate oil, centrifuged and free and bound radioactivity determined. Non-specific binding was determined in the presence of 100× excess concentration of cold hrIL-1 beta.

Turning to “soluble human recombinant interleukin 1ra (shrIL-1ra) (from UniProt P18510 26-177) (ligand)”, the displacement of [125I] IL-1 beta in assay [1] was more than 90%.

B1: IL-1ra peptide 1-35 (SEQ ID NO: 13) (peptide)
peptide: RPSGRKSSKMQAFRIWDVNQKTFYLRNNQLVAGYL
notes: Synthetic peptide representing part of the processed/mature form of human sIL-1ra; also called IL-1ra 1-35; amino terminal IL-1ra peptide
As for B1, the binding result in assay [2] is “no binding”.
